Assay results taken from patent US20170015742A1 (published 2017).
Residue numbers refer to the chain shown, from its start. One block for each binder: values may come before it.

What was measured:
[1] = target: T1, recombinant human VEGF165 (human, UniProt P15692 207-395); test: cell-based or functional assay
[2] = target: T1, recombinant human VEGF165; test: SPR (Biacore), antibody captured by anti-human Fc, hVEGF165 in solution
Procedure: (§1) Unreacted moieties on the biosensor surface were blocked with ethanolamine. For kinetic analysis, rate equations derived from the 1:1 Langmuir binding model were fitted simultaneously to multiple antigen injections (using global fit analysis) with the use of Scrubber 2 (BioLogic Software), Biacore Biaevaluation 4.0.1 software or Biacore T100 Evaluation software. Purified antibodies or DVD-Ig molecules were diluted in running buffer for capture across goat anti-human Fc reaction surfaces. Antibodies or DVD-Ig molecules to be captured as a ligand (1 μg/ml) were injected over reaction matrices at a flow rate of 10 μl/minute. During the assay, all measurements were referenced against the capture surface alone (i.e., with no captured antibody or DVD-Ig molecule). […] The equilibrium dissociation constant KD (M) of the reaction between antibodies and the target antigen was then calculated from the kinetic rate constants by the following formula: KD=Koff/Kₒₙ. Binding was recorded as a function of time and kinetic rate constants were calculated. In this assay, on-rates as fast as 10⁶M⁻¹s⁻¹ and off-rates as slow as 10⁻⁶ s⁻¹ could be measured.
(§2) Affinity matured humanized anti-VEGF antibodies were characterized for hVEGF₁₆₅ binding and potency. Binding affinity of these molecules to hVEGF₁₆₅ was determined by Biacore analysis (Example 1.1). Potency was evaluated in both cell-based and ELISA formats. The ability to block binding of hVEGF₁₆₅ to hVEGFR2 was evaluated in a competition ELISA (Example 1.4) Inhibition of hVEGF₁₆₅-induced cell proliferation was assessed using HMVEC-d cells (Example 1.10).

[3] = target: T1, recombinant human VEGF165; test: competition ELISA: antibody titrated against biotinylated hVEGF165, binding to plate-coated hVEGF-R2-Fc
Procedure: (§3) To identify molecules that could block the binding of hVEGF₁₆₅ to the hVEGF-R2 (KDR/Flk-1) receptor, a competition ELISA was performed. […] Plates were then washed four times with wash buffer (TBS, 0.05% Tween-20) and blocked with Superblock blocking buffer (Thermo Scientific, cat#37535). […] The pre-incubated sample/hVEGF₁₆₅ complex was added to the coated plate at 50 μL in duplicate and incubated for 30 minutes at 25° C. with shaking. Following incubation, plates were washed four times with wash buffer. Streptavidin-polyHRP-40 (Fitzgerald cal#65r-s104phrp) was diluted in assay diluent (10% Superblock containing 0.05% surfactamps) and added to plates (50 μL) for 45 minutes at 25° C. with shaking. Plates were washed four times with wash buffer and developed with the addition of Enhanced K-blue TMB substrate (Neogen cat#308177). The reaction was stopped with 2N sulfuric acid (VWR, cat# BDH3500-1) and the absorbance was read at 450 nm-570 nm. A decrease in observed optical density indicates the test molecule is blocking the hVEGF₁₆₅ binding to the hVEGF-R2-Fc. Data was analyzed using Softmax Pro 4.8 software and IC₅₀ values calculated using a sigmoidal dose response (variable slope) fit in GraphPad Prism 5.
as §2

Human VEGF-A 165 = target: T2, Human VEGF-A 165 (human, UniProt P15692 207-395); test: receptor competition ELISA, hVEGF165 binding to coated hVEGF-R2-Fc
T2 construct: Recombinant; also called huVEGF-A165; hVEGF165
T2 sequence (P15692 other isoform, or with tags, fused parts or gaps limits assumed): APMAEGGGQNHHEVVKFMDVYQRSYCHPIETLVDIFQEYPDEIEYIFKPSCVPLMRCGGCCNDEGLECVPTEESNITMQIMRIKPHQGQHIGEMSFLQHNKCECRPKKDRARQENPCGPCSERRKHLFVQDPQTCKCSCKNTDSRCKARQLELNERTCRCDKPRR
Procedure: as §3
Anti-VEGF-A antibodies derived from rat hybridomas were characterized for binding, function and cross-reactivity in a panel of assays. Supernatants were tested for the ability to bind hVEGF₁₆₅ (Example 1.3) and block binding of hVEGF₁₆₅ to hVEGFR2 in a competition ELISA format (Example 1.4).

Human PDGF-BB = target: T3, Human PDGF-BB (human, UniProt P01127 82-190); test: Biacore SPR (Example 1.1)
T3 construct: Recombinant human PDGF-BB, a dimer of two B chains; also called huPDGF-BB; hPDGF-BB
T3 sequence (P01127 82-190 limits assumed): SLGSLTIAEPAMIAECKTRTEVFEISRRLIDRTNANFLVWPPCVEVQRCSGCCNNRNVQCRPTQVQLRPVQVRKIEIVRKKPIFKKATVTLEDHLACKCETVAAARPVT
Procedure: as §1

T1 sequence (P15692 other isoform, or with tags, fused parts or gaps limits assumed): as the sequence (P15692 other isoform, or with tags, fused parts or gaps limits assumed) above

B2: CL-34469-IgG (antibody, V domains shown)
VH: EVQLVQSGSELKKPGASVKVSCKASGYTFTNYGMYWVRQAPGQGLEWMGWIDTETGEPTYADDFKGRFVFSLDTSVSTAYLQISSLKAEDTAVYYCARTNYYYRSYMFYFDYWGQGTMVTVSS
VL: EIVLTQSPATLSLSPGERATLSCRASQSVSTHMHWYQQKPGQAPRLLIYGASNLESGVPARFSGSGSGTDFTLTISSLEPEDFAVYYCQQSWYDPLTFGQGTKLEIK
notes: also called h4G8 CL-34469
- hVEGF165 IC50 (nM), Potency HMVEC-d (hVEGF165-induced proliferation) [1]: 0.094 nM
- Kd [2]: 0.00062 nM
- kon [2]: 1.5e+07 M⁻¹ s⁻¹
- IC50 [3]: < 0.1 nM

B3: CL-34538-IgG (antibody, V domains shown)
VH: B2 VH with N31D, R104P
VL: B2 VL with Y87F, S91T
notes: also called h4G8 CL-34538
- hVEGF165 IC50 (nM), Potency HMVEC-d (hVEGF165-induced proliferation) [1]: 0.127 nM
- Kd [2]: 0.00024 nM
- kon [2]: 3.3e+07 M⁻¹ s⁻¹
- IC50 [3]: < 0.1 nM

B7: BEW-1E3-D6 (antibody, IgG2b, V domains shown)
VH: QIQLVQSGPELKKPGESVKISCKASGYPFTNSGMYWVKQAPGQGLQYMGWINTEAGKPTYADDFKGRFVFFLETSASTAYLQINNLKNEDMATYFCARWGYISDNSYGWFDYWGQGTLVTVSS
VL: DTVLTQSPALAVSPGERVSISCRASEGVYSYMHWYQQNPGQQPKLLIYKASNLASGVPARFSGSGSGTDFTLTIDPVEADDTATYFCHQNWNDPLTFGSGTKLEIK
notes: Rat hybridoma antibody, isotype IgG2b/kappa
- IC50 (Human VEGF-A 165): 0.62 nM

B9: BDI-5H1-F6 (antibody, V domains shown)
VH: QVTLKESGPGILQPSQTLSLTCTFSGFSLSTFGMGVGWIRQPSGKGLEWLANIWWDDDKYYNPSLKNRLTISKDTSNSQAFLEITNVDTADTATYYCARISTGISSYYVMDAWGQGASVTVSS
VL: QFTLTQPKSVSGSLRSTITIPCERSSGDIGDTYVSWYQQHLGRPPINVIYGNDQRPSEVSDRFSGSIDSSSNSASLTITNLQMDDEADYFCQSYDSDIDIVFGGGTKLTVL
- Kd (Human PDGF-BB): ≤ 0.0001 nM
- kon (Human PDGF-BB): ≥ 1e+07 M⁻¹ s⁻¹

Second part, the binder after the results:

- hVEGF165 IC50 (nM), Potency HMVEC-d (hVEGF165-induced proliferation) [1]: 0.106 nM
- Kd [2]: 0.00052 nM
- kon [2]: 2.7e+07 M⁻¹ s⁻¹
- IC50 [3]: < 0.1 nM
B1: CL-34475-IgG (antibody, V domains shown)
VH: B2 VH with N31D, R104S
VL: B2 VL with V58I
notes: also called h4G8 CL-34475

- hVEGF165 IC50 (nM), Potency HMVEC-d (hVEGF165-induced proliferation) [1]: 0.138 nM
- Kd [2]: 0.00024 nM
- kon [2]: 1.7e+07 M⁻¹ s⁻¹
- IC50 [3]: < 0.1 nM
B4: CL-34633-IgG (antibody, V domains shown)
VH: B2 VH with T30S, N31D
VL: B2 VL with Y87F
notes: also called h4G8 CL-34633

- hVEGF165 IC50 (nM), Potency HMVEC-d (hVEGF165-induced proliferation) [1]: 0.116 nM
- Kd [2]: 0.00053 nM
- kon [2]: 2e+07 M⁻¹ s⁻¹
- IC50 [3]: < 0.1 nM
B5: CL-34522-IgG (antibody, V domains shown)
VH: B2 VH with T30E, R104S
VL: B2 VL with S30G, N53K
notes: also called h4G8 CL-34522

- IC50 (Human VEGF-A 165): 0.156 nM
B6: BEW-5C3-E7 (antibody, IgG2b, V domains shown)
VH: QIQLVQSGPELKKPGESVKISCKASGYTFTNYGVYWVKQAPGQGLQYMGWINTETGKPTYADDFKGRFVFFLETSTNTAYLQINNLKNEDMATFFCARARQLDWFVYWGQGTLVTVSS
VL: DTVLTQSPALTVSPGERVSISCRARESLTTSLCWFQQKPGQQPKLLIYGASKLESGVPARFSGSGSGTDFTLTIDPVEADDTATYFCQQSWYDPPTFGGGTKLELK
notes: as for B7

- Kd (Human PDGF-BB): ≤ 0.0001 nM
- kon (Human PDGF-BB): ≥ 1e+07 M⁻¹ s⁻¹
B8: BDI-5G2-F9 (antibody, V domains shown)
VH: B9 VH
VL: B9 VL
